This is an account of results in article PMC10094494.

The assay concerns the target D-psicose 3-epimerase from Iocasia fonsfrigidae strain SP3-1 (Iocasia fonsfrigidae strain SP3-1). The experiment in a line: native gel or EMSA; native-PAGE of the purified recombinant enzyme, run like SDS-PAGE but without SDS, beta-mercaptoethanol and heat.

With “D-psicose 3-epimerase from Iocasia fonsfrigidae strain SP3-1 (enzyme)”, the stoichiometry N came out at 2.

In general, stoichiometry N refers to the number of molecules, sites or subunits per partner or assembly.
